Residue numbers refer to the chain shown, from its start.
B1: ADI-41492 (antibody, V domains shown)
VH: QVQLVQSGAEVRKPGSSVKVSCKASGGTFNSFVISWVRQAPGQGLEWMGRIIPILATVDYAQKFQGRVTITADKSTTTAYMELSGLTSEDTAVYYCARDPPRWDTTMADYYYQGMDVWGQGTTVTVSS
VL: DIRVTQSPASLSAFVGDRVTISCRASQSIGSFLNWYQQKPGKAPKLLIYAASSLQSGVPSRFSGSGSGTDFTLAISSLQPEDFATYYCQQSYRSTPTFGGGTKVEIK
B2: ADI-41487 (antibody, V domains shown)
VH: QVQLVESGGGLVKPGGSLRLSCAASGFTFSTYTMNWVRQAPGKGLEWVSSISGSSAYIYYADSVKGRFTISRDNAKNSLFLQMNSLRAEDTAVYYCARLQGLVLPAVMPSYYYYSGMDVWGQGTTVTVSS
VL: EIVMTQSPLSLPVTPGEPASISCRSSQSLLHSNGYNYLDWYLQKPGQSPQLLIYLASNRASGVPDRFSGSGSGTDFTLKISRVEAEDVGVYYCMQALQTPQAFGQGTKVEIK
notes: also called Ab 768; Antibody Number 768
B3: ADI-41482 (antibody, V domains shown)
VH: QVQLVQSGAEVKKPGSSVKVSCKASGGTFGSYTINWVRQAPGQGLEWMGGIIPIFGATNYAQNFQGRVSITADKSTATAYMDLISLRSEDTAVYYCARLGRSSPLNSCTTTSCYFWGRGMDVWGQGTTVTVSS
VL: QSVLIQPASVSGSPGQSITISCTGTISDVGIYNYVSWYQQHPGKAPKLIISDVSDRPSGVSNRFSGSKSGITASLTITGLQAEDEADYYCSSYSSSSTLYVFGTGTKLTVL
B4: ADI-41499 (antibody, V domains shown)
VH: EVQLVESGGVVVQPGGSLRLSCAASGFSFDDYTMYWVRQAPEKGLEWISLISWNGGVTYYPDSVKGRFTVSRDNNKNSLYLQMDSLRPEDSAFYYCAKESLESSGHFLDYWGQGTLVTVSS
VL: QPVLTQSRSVSGSPGQSVTISCIGTNSDVGGYHYVSWFQHHPGKAPKLMIYDVSRRPSGVPARFSGSKSGNTASLSISGLRAEDEADYYCCSFAGTYTPYVFGTGTKLTVL
B5: ADI-41508 (antibody, V domains shown)
VH: QVQLVQSGAEVRKPGASVKVSCKASGYGFRSYDLTWVRQAPGKGLEWVGWISAYSGGTNYAQTLQGRVTMTTDTSTSTAYMELRSLGPDDTAVYYCARAGLYGSGSPDGFDSWGQGTLVTVSS
VL: SYELTQPPSVSVSPGQTASITCSGDKLGDKYASWYQQRPGQSPVLVISQDTKRPSGIPERFSGSTSGNTAILTISGTQAMDEADYYCLAWDSSTAWVFGGGTKLTVL
notes: also called Ab 786; Antibody Number 786
B6: ADI-41504 (antibody, V domains shown)
VH: EVQLLESGPGLLKTSETLSLTCTVSDGSISGYYWTWIRQPPGKGLECIGYISYSGSTNYSPSLKSRVTISVDTSKNQFSLKLSSVTAADTAVYYCAKIGGYCNPTKCYGWFDPWGQGTLVTVSS
VL: QPVLTQPPSVSGAPGQRVTISCTGSSSNIGAGYDVHWYQQLPGTAPKLLIFGNTNRPSGVPDRFSGSKSGTSASLAITGLQAEDEAAYYCQSYDSSLFYVVLGGGTKLTVL
notes: also called Ab 783; Antibody Number 783
B7: ADI-41495 (antibody, V domains shown)
VH: QVQLVQSGGGLVEPGGSLRLSCAASGFTFSNTWMNWVRQAPGKGLTWVGRIKRKTDFGTSDYAAPVKGRFTISRDDSKNMVFLQMNSLKIEDTGVYYCTTHPRPYLDTTAVVYWGQGTLVTVSS
VL: QPVLTQPHSVSESPGKTVTISCIGSSGSITSNYVQWFQQRPGSAPTTVIYEDDQRPSGVPDRFSGSIDSSSNSASLTISGLKTEDEADYYCQSYHHTNPWVFGGGTKLTVL
B8: ADI-41493 (antibody, V domains shown)
VH: QVQLVQSGAEVKKPGESLKISCKGSGYSFTKYWIGWVRQLPGKGLEWMGIIYPGDSETIYSPSFQGQVTISADKSVSTAYLQWSSLKASDTAMYYCARQTFVFWGESHDAFDIWGQGTTVTVSS
VL: QPVLTQPPSASGSPGQSVTISCTGTSSDVGAHNYVSWYQQHPGKAPKLMIYEVSKRPSGVPDRFSGSKSGNTASLTVSGLQAEDEADYYCSSYAGSNNWVFGGGTKLTVL
notes: also called Ab 773; Antibody Number 773
B9: ADI-41498 (antibody, V domains shown)
VH: EVQLLESGGGLVKPGGSLRLSCAASGFIFSDYAMNWVRQTPGKGLEWVSSISDSSAYKYYTGSVSGRFTISRDNAKNSLYLQMNDLRPEDTAVFYCARGQWRCSGASCYSPFDSWGQGTLVTVSS
VL: SYELTQPPSVSVAPGQTARIPCGGNNIESKNVHWYQQKPGQAPVLVVYDDSDRPSGIPERFSGSNSGSTATLTISRVEAGDEADYYCHVWHRSGDLREVFGSGTKVTVL
notes: also called Ab 778; Antibody Number 778
B10: ADI-41497 (antibody, V domains shown)
VH: QVQLVESGGGVVQPGRSLRLSCAASGFTFSNHAMHWVRQAPGKGLEWLSFISYDGGVNFYRDSVKGRFTISRDNSKNTLYLQMSSLRPEDTAVYYCARDRVGRVVGASYYLDYWGRGALVTVSS
VL: QSVVTQPPSVSVAPGQTASITCGGKHIGSKSVHWYQQKPGQSPVLVVHDDSDRPSGILERFSGSNSGNTATLTINRVEAGDEADYYCQVWDNASDHPYVFGPGTKVTVL
B11: ADI-41526 (antibody, V domains shown)
VH: QVQLVQSGAEVKKPGASVKVSCEASGYTFTDYYMHWVRQAPGQGLEWMGWINPNSGVTKIAQNFQGRVTMTRDTSITTAYMDLSRLRSDDTAVYYCARVVDGDYDNWFDFWGQGTLVTVSS
VL: SYVLTQPPSASGTPGQRVTISCSGSTSNIGTNTVNWYQQPPGMAPKLLIYANNQRPSGVPDRFSGSKSGTSASLAISGLQSEDEADYHCAVWDDSLPGWVFGGGTKLTVL
B12: ADI-41485 (antibody, V domains shown)
VH: EVQLLESGPGLVRPSETLSLTCTVSGGSLDSGPHYWNWIRQPPGKGLEWIGYIYYSVSTNYNPSLKSRVTISMDTSKNQFSLNLTSVTAADTAVYYCASFQLIYGPQIWGQGKKVTVSS
VL: DIVLTQSPSSVSASVGDRVTITCRASQAISSWLIWSQHKPGKAPKVLIYAASSLQSGVPSRFSGSGSGTDFTLTISSLQPEDFATYYCQQANNFPLTFGGGTKVEIK
B13: ADI-41527 (antibody, V domains shown)
VH: EVQLLESGGGLVQPGGSLRLSCAASGFTFTSYWMSWVRQAPGQGLEWVATIKQDGSEKYYVDSVKGRFTISRDNAKNSLYLQMNSLGAEDTAVYYCARDMYCSTTTCYFFETYYYNGMDVWGQGTTVTVSS
VL: DIRLTQSPSSVSASVGDRVTITCRASQVTSTWLAWYQQNPGKAPKLLIYAASRLQSGVPSRFSGSGSGTEFTLTISSLQPEDFATYYCQQANSFPLTFGGGTKVEIK
notes: also called Ab 799; Antibody Number 799
B14: ADI-41486 (antibody, V domains shown)
VH: QVQLQQWGAGLLKPSETLSLTCSVYGGSFSGYYWSWIRQPPGKGLEWIGEINHSGSTNYNPSLKSRITISVDTSKNQFSLKLNSVTAADTAVYYCARGDYAFVTFDYWGQGTLVTVSS
VL: QSVLTQPASVSGSPGQSITISCTGTSSDVGGYNYVSWYQQHPGKAPKLMIYEVSNRPSGVSNRFSGSKSGNTASLTISGLQAEDEADYYCSSYTSSSTPVFGGGTKLTVL
notes: also called Ab 767; Antibody Number 767
B15: ADI-41503 (antibody, V domains shown)
VH: EVQLLESGGGLVQPGGSLRLSCAASGFTFSDFPLSWVRQAPGKGLVWVSAISSSGGDTYYADSVKGRFTISRDSSKNALYLQMNSLRAEDTAVYYCAKGQELLRPYYYGMDVWGQGTTVTVSS
VL: B14 VL with V3A, T5I, Y34F, Y51F, N62H, Y93C, S96R, S97F, P99Y, G103T
B16: ADI-41494 (antibody, V domains shown)
VH: EVQLVESGGGLVQPGRSLRLSCTTSGFTFGDYAVTWVRQAPGKGLEWIGIMKSKTYRGTTDYAASLRGRFSISRDDSKSIAYLQMTSLKSEDTGVYYCVRGHDYGDPFDYWGQGTLVTVSS
VL: B14 VL with T25G, G31Y, M49L, E52D, S54N, N62D, A82P, S95R, S97R, P99W
notes: also called Ab 774; Antibody Number 774
B17: ADI-41502 (antibody, V domains shown)
VH: QVQLVQSGAEVKKPGSSVKVSCKASGGPFSSDAMSWVRQAPGQGLEWMGGIIPILGSATYAQKFKGRVTIAADESTSTSYMELSGLKYEDTAVYYCARPFYDPLTGYFDTFNVWGQGTTVTVSS
VL: QSVLTQPRSVPGSPGQSVTISCTGTSGDVGGYNYVSWYQQHPGKAPKLVIYDVTKRPSGVPDRFSGSKSGNRASLTISGLQAEDEADYYCCSYAGSQTGYVFGTGTKVTVL
notes: also called Ab 781; Antibody Number 781
B18: ADI-41496 (antibody, V domains shown)
VH: QVQLVQSGAEVKKPGASVKVSCKASGYTFTSDDINWVRQATGQGLEWMGWMNPNSGDTGYAQKFQGRVTMTRDTSISTAYMELSSLRSEDTAVYYCARVRIQCSGGRCSYWFFDLWGRGTLVTVSS
VL: QSALTQPASVSGSPGQSITISCIGTSSDVGNYNLVSWYQHHPGKAPKVMIYEVNERPSGVSNRFSGSKSGNTASLTISGLQAEDEADYYCCSYAGRSTWVFGGGTKLTVL
B19: ADI-41484 (antibody, V domains shown)
VH: EVQLVESGPGLVKPSEALSLTCTVSGASISSYYWTWIRQSPRKGLEWIGYIYHTGRTNYNPSLKRRVTMSVDWSKNQFSLTLSSVTAADTAVYYCARLKVVPAALESAILEHHFGLDVWGQGTTVTVSS
VL: DIVMTQTPSTLSASIGDRVTLTCRASQSINRWLAWYQQKPGKAPKLLIYKASTLESGVPSRFSGSGSGTEFTLTISGLQPDDFATYYCQQYNNFPYTFGPGTKVDIK

These binders were tested against RSV F on RSV-A2 virus (Respiratory Syncytial Virus (RSV-A2), UniProt P03420 26-574) (assay: cell-based or functional assay).

Binder | Neutralization IC50 (RSV subtype A) [µg/mL]
B1 | > 25
B2 | > 25
B3 | > 25
B4 | > 25
B5 | 0.1
B6 | > 25
B7 | > 25
B8 | > 25
B9 | > 25
B10 | > 25
B11 | > 25
B12 | > 25
B13 | > 25
B14 | > 25
B15 | > 25
B16 | > 25
B17 | > 25
B18 | > 25
B19 | > 25

These binders were tested against RSV prefusion F (preF), DS-Cav1 (Respiratory Syncytial Virus, UniProt P03420 26-513) (assay: BLI, IgG on anti-human IgG sensor, 100 nM antigen, 1:1 fit).

Binder | Kd [nM]
B1 | 182
B2 | 3.12
B3 | 3.37
B4 | 1.99
B5 | 4.15
B6 | 2.8
B7 | 77.2
B8 | 0.45
B9 | 1.22
B10 | 1.44
B11 | 0.301
B12 | 3.01
B13 | 0.712
B14 | 2.86
B15 | 3.14
B16 | 2.61
B17 | 1.34
B18 | 1.65
B19 | 3.44

The binders below were run against RSV postfusion F (postF), F ΔFP (Respiratory Syncytial Virus, UniProt P03420 26-513) in the same assay as above.

Binder | Kd [nM]
B1 | 54.8
B2 | 0.754
B3 | 1.49
B4 | 0.297
B5 | 0.555
B6 | 0.508
B7 | 57.3
B8 | 0.372
B9 | 0.22
B10 | 0.268
B11 | 0.336
B12 | 1.02
B13 | 0.337
B14 | 0.448
B15 | 0.493
B16 | 0.44
B17 | 0.308
B18 | 1.37
B19 | 0.782

Reference: patent US20260258115A1 (MAPP BIOPHARMACEUTICAL, published 2026)
